Experimental findings from paper PMC5880071, “Self-sustained enzymatic cascade for the production of 2,5-furandicarboxylic acid from 5-methoxymethylfurfural” (Biotechnology for Biofuels, 2018) are described below.

Data set [1] concerns the target T1, UPO (unspecific peroxygenase), PaDa-I variant (Cyclocybe aegerita, UniProt B9W4V6, V100A/L110F/V118I/I291V/F354L).
T1 construct: gene APO1
Briefly: GC-MS product analysis (FFCA formed). Format: biochemical. To be noted: 1.5 mM MMFA, 5 µM UPO, 1.5 mM H2O2; ether cleavage.

Substrate in data set [2]: COCc1ccc(C=O)o1
Briefly: purified protein. To be noted: O2 co-substrate (air), sodium phosphate pH 7.0 (50 mM in Table 1, 100 mM in Methods), 25 °C. Format: biochemical, Pleurotus eryngii.

Substrate in data set [3]: O=Cc1ccc(CO)o1
Briefly: purified protein. The data set is classed as biochemical, Pleurotus eryngii. To be noted: O2 co-substrate (air), sodium phosphate pH 7.0 (50 mM in Table 1, 100 mM in Methods), 25 °C.

Substrate in data set [4]: O=Cc1ccc(C=O)o1
Kind of data set: purified protein. To be noted: O2 co-substrate (air), sodium phosphate pH 7.0 (50 mM in Table 1, 100 mM in Methods), 25 °C.

T1 sequence (B9W4V6 44-371 V100A/L110F/V118I/I291V/F354L): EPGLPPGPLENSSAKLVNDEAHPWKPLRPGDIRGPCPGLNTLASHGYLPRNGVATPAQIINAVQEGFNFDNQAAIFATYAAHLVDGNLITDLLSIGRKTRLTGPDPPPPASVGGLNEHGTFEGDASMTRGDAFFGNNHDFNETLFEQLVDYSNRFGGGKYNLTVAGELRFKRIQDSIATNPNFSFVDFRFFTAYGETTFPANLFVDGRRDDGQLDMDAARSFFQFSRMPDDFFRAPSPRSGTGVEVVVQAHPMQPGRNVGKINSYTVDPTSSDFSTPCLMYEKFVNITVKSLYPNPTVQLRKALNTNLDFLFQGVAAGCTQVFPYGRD

As for `COCc1ccc(C(=O)O)o1` [MMFA, 5-(Methoxymethyl)-2-furancarboxylic acid], in data set [1], the “GC-MS product analysis (FFCA formed)” value is reported as “UPO is indeed capable to cleave the ether bond of MMFA”.

B1: AAO (aryl-alcohol oxidase) (Pleurotus eryngii) (protein)
chain: ADFDYVVVGAGNAGNVVAARLTEDPDVSVLVLEAGVSDENVLGAEAPLLAPGLVPNSIFDWNYTTTAQAGYNGRSIAYPRGRMLGGSSSVHYMVMMRGSTEDFDRYAAVTGDEGWNWDNIQQFVRKNEMVVPPADNHNTSGEFIPAVHGTNGSVSISLPGFPTPLDDRVLATTQEQSEEFFFNPDMGTGHPLGISWSIASVGNGQRSSSSTAYLRPAQSRPNLSVLINAQVTKLVNSGTTNGLPAFRCVEYAEQEGAPTTTVCAKKEVVLSAGSVGTPILLQLSGIGDENDLSSVGIDTIVNNPSVGRNLSDHLLLPAAFFVNSNQTFDNIFRDSSEFNVDLDQWTNTRTGPLTALIANHLAWLRLPSNSSIFQTFPDPAAGPNSAHWETIFSNQWFHPAIPRPDTGSFMSVTNALISPVARGDIKLATSNPFDKPLINPQYLSTEFDIFTMIQAVKSNLRFLSGQAWADFVIRPFDPRLRDPTDDAAIESYIRDNANTIFHPVGTASMSPRGASWGVVDPDLKVKGVDGLRIVDGSILPFAPNAHTQGPIYLVGKQGADLIKADQ
Turning to B1, the results for the Km in the data set “purified protein [2]”, in the data set “purified protein [3]” and in the data set “purified protein [4]” were 60.8 ± 5.5 mM, 1.6 ± 0.2 mM and 3.3 ± 0.2 mM, respectively. The kcat (commonly the maximal rate divided by the concentration of active sites) in the data set “purified protein [2]” turned out to be 0.263 ± 0.01 s⁻¹; in the data set “purified protein [3]” it was 0.335 ± 0.01 s⁻¹; in “purified protein [4]”, 0.523 s⁻¹. Moreover, the kcat/Km – broadly, the turnover number divided by the Michaelis constant – worked out at 5.83 ± 0.333 M⁻¹ s⁻¹ in “purified protein [2]”, 215 ± 20 M⁻¹ s⁻¹ in “purified protein [3]” and 157 M⁻¹ s⁻¹ in the data set “purified protein [4]”.
